Test results published in paper PMC6996315.

Biological target: human α3β2 nicotinic acetylcholine receptor (human) (UniProt P32297)
UniProt P32297, sequence (P32297 32-505, chain 1 of 2): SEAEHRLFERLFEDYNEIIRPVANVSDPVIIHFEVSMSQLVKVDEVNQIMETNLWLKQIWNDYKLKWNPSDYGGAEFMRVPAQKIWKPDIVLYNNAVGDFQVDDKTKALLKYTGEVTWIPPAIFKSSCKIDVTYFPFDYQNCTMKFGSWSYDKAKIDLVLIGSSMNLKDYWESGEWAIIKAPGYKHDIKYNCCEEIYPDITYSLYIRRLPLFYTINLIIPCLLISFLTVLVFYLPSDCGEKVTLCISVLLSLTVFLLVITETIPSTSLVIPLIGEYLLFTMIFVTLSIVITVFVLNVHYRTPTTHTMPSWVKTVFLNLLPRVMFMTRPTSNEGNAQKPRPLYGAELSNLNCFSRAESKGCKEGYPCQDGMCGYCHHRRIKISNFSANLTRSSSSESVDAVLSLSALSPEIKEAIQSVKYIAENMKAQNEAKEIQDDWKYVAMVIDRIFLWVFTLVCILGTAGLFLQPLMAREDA
UniProt P32297, sequence (P17787 26-502, chain 2 of 2, further chain): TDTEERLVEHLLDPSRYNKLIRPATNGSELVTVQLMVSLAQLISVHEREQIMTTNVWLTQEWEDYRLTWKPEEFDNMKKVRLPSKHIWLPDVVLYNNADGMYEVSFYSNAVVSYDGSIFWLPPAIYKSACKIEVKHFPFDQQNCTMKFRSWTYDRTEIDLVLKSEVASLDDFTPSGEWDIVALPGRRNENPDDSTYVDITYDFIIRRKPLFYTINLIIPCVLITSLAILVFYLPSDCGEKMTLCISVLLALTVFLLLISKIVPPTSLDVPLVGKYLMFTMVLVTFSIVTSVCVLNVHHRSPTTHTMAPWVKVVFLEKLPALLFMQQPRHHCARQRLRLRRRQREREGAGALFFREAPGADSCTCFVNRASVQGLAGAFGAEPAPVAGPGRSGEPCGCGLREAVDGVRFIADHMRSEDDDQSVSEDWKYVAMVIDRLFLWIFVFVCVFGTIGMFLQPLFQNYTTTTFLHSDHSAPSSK

Which inhibition of ACh‐evoked peak current at 30 nmol/L drysdalin, Xenopus oocytes does the source give for drysdalin (natural protein) here?
The inhibition of ACh‐evoked peak current at 30 nmol/L drysdalin, Xenopus oocytes was 13%.
